Like-named read-outs stand apart in the source and are kept apart here. One block for each binder: values may come before it.
What was measured:
[1] = molecular target: LILRB2 antigen of the ELISA of Table 5 (format not specified) (UniProt Q8N423 22-460, limits assumed); assay: ELISA, antibody titration
[2] = molecular target: T1, human LILRB1 expressed on 293T cells (human, UniProt Q8NHL6 24-650); assay: cell ELISA, 293T-LILRB1 cells, antibody 2 ug/ml
T1 construct: whole, on cells
Description: (§1) The cells were then immobilized with glutaraldehyde in the presence of 5% defatted milk at room temperature for 2 hours. An anti-LILRB2 antibody (2 μg/ml) was added to each well and incubated at room temperature for 2 hours. An HRP-labelled goat anti-mouse secondary antibody was then added into each well and incubated at room temperature for one hour. An HRP substrate, o-phenylenediamine dihydrochloride (OPD) was then added to each well. The plate was incubated at room temperature for 15 min to allow color development and OD₄₉₀ values were determined.

[3] = molecular target: T2, human LILRB2 expressed on cells (293T-LILRB2, CHO-K1-LILRB2) (human, UniProt Q8N423 22-597); assay: cell ELISA, 293T-LILRB2 cells, antibody 2 ug/ml
T2 construct: whole, on cells; the cell line is named under assay; also called HEK293T-LILRB2
Description: as §1

[4] = molecular target: T3, human LILRB3 expressed on 293T cells (human, UniProt O75022 24-631); assay: cell ELISA, 293T-LILRB3 cells, antibody 2 ug/ml
T3 construct: whole, on cells
Description: as §1

[5] = molecular target: T1, human LILRB1 expressed on 293T cells; assay: flow cytometry on 293T transfectants, MFI
Procedure, shortened: (§2)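 Cells fixed with glutaraldehyde in 5% defatted milk, RT 2 h, then stained with anti-LILRB2 antibody (5 μg/ml, RT 1 h) and Alexa Fluor goat anti-mouse secondary (1:2,000, RT 30′). After two PBS washes, mean fluorescence intensity was measured.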

[6] = molecular target: T3, human LILRB3 expressed on 293T cells; assay: flow cytometry on 293T transfectants, MFI
Procedure, shortened: as §2

LILRB2-Fc fusion protein = molecular target: T4, LILRB2-Fc fusion protein (human, UniProt Q8N423 22-460, limits assumed); assay: ELISA, blockade of LILRB2-Fc binding to coated His-ANGPTL2
T4 construct: not shown: Fc
Description: His-tagged ANGPTL2 protein (1 μg/ml) was placed in a 96-well plate ([…]) and incubated at 4° C. overnight. Afterwards, LILRB2-Fc fusion protein at 0.25 mg/ml was incubated with the anti-LILRB2 antibody at various concentrations at room temperature for one hour and then added into the His-ANGPTL2 coated plate. The plate was placed in a shaker at 500 rpm for 2 hours at room temperature. HRP-labelled goat anti-human Fc antibody (1:10,000 dilution) was added to the plate (100 μl/well). After incubation at room temperature for 1 hour, TMB was added for color development.
Clones 11B12, 9B6, 9H6, and 14F1 were selected for dose-dependent blockade assays. A mouse IgG (mIgG) antibody was used as a negative control. […] The IC₅₀ values are around 1 nM. […] (ix) Exemplary Anti-LILBR2 Antibodies Enhanced TNFα Expression and Suppressed IL-10 Expression in LPS-Stimulated PBMCs

LILRB1-His = molecular target: T5, LILRB1-His; assay: ELISA on recombinant His-tagged protein, OD450
T5 construct: also called His-tagged LILRB1; recombinant LILRB1 protein

LILRB3-His = molecular target: T6, LILRB3-His; assay: ELISA on recombinant His-tagged protein, OD450
T6 construct: also called His-tagged LILRB3; recombinant LILRB3 protein

[7] = molecular target: T7, His-tagged human LILRB2 polypeptide (human, UniProt Q8N423 22-460); assay: SPR, antibody on CM5 chip, His-LILRB2 analyte, 1:1 model
T7 construct: SPR analyte; also called His-tagged human LILBR2 polypeptide; not shown: His tag
Description: Surface plasmon resonance (SPR) was used to examine binding activities of exemplary anti-LILBR2 antibodies disclosed herein. Briefly, the anti-LILBR2 antibody was diluted in a coating buffer to a concentration of 30 μg/ml, loaded onto CM5 chips at 10 μl/min to allow coating of the antibody on the surface of the CM5 chip. […] Binding affinity was measured based on the 1:1 binding model.

[8] = molecular target: T2, human LILRB2 expressed on cells …; assay: flow cytometry, blockade of PE-HLA-G tetramer binding to 293T-huLILRB2 cells
Description: Pre-experimentation was performed to determine parameters for this assay. […] The cells were washed twice and then analysed by flow cytometry. […] FIG. 3C.
A mouse IgG (mIgG) antibody was used as a negative control.

[9] = molecular target: T2, human LILRB2 expressed on cells …; assay: flow cytometry, blockade of PE-HLA-A2 tetramer binding to CHO-K1-huLILRB2 cells
Description: Pre-experimentation was performed to determine parameters for this assay. PE-labelled HLA-A2 tetramer at the concentration of 0.25 μg/ml and an anti-LILRB2 antibody at the concentration of 2.5 μg/ml were incubated with CHO-K1-huLILRB2 cells for 10 minutes. The cells were washed twice and then analysed by flow cytometry. […] FIG. 3A.
Clones 11B12, 9B6, and 9H6 were selected for dose-dependent blockade assays against HLA-A2 from binding to CHO-K1-huLILRB2 cells. A mouse IgG (mIgG) antibody was used as a negative control.

[10] = molecular target: T3, human LILRB3 expressed on 293T cells; assay: cell ELISA on fixed 293T transfectants, OD490
Description: as §1

[11] = molecular target: T1, human LILRB1 expressed on 293T cells; assay: cell ELISA on fixed 293T transfectants, antibody 2 µg/ml, OD490
Description: as §1

[12] = molecular target: T2, human LILRB2 expressed on cells …; assay: flow cytometry on 293T-LILRB2 cells, serial dilution, APC anti-human IgG; fit table under the graph
Description: The cells were washed and then subject to flow cytometry to measure levels of fluorescent signals.

[13] = molecular target: T2, human LILRB2 expressed on cells …; assay: flow cytometry, blockade of His-tagged HLA-G tetramer binding to 293T-LILRB2 cells; fit table under the graph
Description: (§3) Serial diluted humanized LILRB2 antibodies were then added to the mixture and incubated at room temperature for another 45 minutes. The binding of HLA-G/LILRB2 was detected afterwards using a secondary PE-labeled anti-His tag antibody via flow cytometry.

[14] = molecular target: T2, human LILRB2 expressed on cells …; assay: flow cytometry, 293T-LILRB2 cells
Description: The fluorescent signals were detected by flow cytometry.

[15] = molecular target: T8, recombinant human LILRB2 protein (human, UniProt Q8N423 22-460, limits assumed); assay: ELISA, coated recombinant human LILRB2; set-up: unit not given here
T8 construct: also called recombinant LILRB2 protein

[16] = molecular target: T2, human LILRB2 expressed on cells …; assay: flow cytometry, His-HLA-A2 tetramer (competitor) bound to 293T-LILRB2 cells, relative to no antibody; set-up: concentration or dose not given beside the values
Description: Serial diluted h#2E1 antibodies were then added to the mixture and incubated at room temperature for another 45 minutes. […]

[17] = molecular target: T2, human LILRB2 expressed on cells …; assay: flow cytometry, blockade of His-tagged HLA-G tetramer binding to 293T-LILRB2 cells; fit table under the graph; remark: listed apart in the source
Description: as §3

[18] = molecular target: T2, human LILRB2 expressed on cells …; assay: as above; remark: listed apart in the source
Description: as §3

[19] = molecular target: T2, human LILRB2 expressed on cells …; assay: flow cytometry, blockade of His-tagged HLA-A2 tetramer binding to 293T-LILRB2 cells; fit table under the graph

Chain of LILRB2 antigen of the ELISA of Table 5 (format not specified) (Q8N423 22-460 limits assumed): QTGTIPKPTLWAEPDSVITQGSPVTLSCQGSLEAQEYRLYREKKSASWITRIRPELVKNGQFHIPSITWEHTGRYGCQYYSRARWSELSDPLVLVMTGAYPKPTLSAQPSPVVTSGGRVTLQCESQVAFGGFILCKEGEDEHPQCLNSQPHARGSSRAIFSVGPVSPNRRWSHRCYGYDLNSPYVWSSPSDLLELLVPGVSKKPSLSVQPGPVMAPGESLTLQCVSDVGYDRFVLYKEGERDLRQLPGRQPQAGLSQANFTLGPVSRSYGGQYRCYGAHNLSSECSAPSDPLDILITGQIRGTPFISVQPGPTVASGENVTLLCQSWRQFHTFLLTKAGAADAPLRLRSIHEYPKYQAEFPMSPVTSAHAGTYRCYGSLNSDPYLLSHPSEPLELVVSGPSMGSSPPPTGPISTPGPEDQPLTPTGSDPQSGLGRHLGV
T7 sequence (Q8N423 22-460 limits assumed): as above
T1 sequence (Q8NHL6 24-650): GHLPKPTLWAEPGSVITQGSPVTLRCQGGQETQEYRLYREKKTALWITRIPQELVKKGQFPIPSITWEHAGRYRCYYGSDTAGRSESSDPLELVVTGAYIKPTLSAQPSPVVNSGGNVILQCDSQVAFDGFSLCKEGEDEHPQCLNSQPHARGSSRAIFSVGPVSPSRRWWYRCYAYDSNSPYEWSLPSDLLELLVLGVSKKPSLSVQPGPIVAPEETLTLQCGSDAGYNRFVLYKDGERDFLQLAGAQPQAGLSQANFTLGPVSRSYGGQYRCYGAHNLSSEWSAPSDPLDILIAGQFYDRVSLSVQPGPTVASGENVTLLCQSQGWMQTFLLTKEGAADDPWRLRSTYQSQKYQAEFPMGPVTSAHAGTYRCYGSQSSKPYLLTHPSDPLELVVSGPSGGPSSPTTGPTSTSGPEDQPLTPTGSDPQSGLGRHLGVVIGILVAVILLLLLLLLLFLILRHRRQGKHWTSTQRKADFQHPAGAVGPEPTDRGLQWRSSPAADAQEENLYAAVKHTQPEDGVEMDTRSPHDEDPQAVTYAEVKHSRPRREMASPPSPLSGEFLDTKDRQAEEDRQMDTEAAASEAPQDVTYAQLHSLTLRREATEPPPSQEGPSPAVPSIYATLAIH
T2 sequence (Q8N423 22-597): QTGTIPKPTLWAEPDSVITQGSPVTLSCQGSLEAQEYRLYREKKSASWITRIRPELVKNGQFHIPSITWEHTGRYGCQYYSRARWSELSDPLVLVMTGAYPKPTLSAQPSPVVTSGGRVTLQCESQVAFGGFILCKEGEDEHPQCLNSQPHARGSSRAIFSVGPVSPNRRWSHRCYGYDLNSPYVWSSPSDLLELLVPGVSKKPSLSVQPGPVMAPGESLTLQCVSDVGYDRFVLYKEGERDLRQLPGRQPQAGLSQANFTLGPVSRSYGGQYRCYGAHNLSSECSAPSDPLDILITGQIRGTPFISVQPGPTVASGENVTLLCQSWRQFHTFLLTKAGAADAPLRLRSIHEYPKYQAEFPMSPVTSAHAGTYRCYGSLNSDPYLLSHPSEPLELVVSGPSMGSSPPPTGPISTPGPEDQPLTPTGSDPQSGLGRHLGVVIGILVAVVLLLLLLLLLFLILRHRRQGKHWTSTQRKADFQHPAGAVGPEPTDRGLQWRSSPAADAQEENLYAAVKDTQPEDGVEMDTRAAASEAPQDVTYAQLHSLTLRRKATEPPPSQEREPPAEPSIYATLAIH
T4 sequence (Q8N423 22-460 limits assumed): as the sequence (Q8N423 22-460 limits assumed) above
T5 sequence (chain, as listed by the source limits assumed): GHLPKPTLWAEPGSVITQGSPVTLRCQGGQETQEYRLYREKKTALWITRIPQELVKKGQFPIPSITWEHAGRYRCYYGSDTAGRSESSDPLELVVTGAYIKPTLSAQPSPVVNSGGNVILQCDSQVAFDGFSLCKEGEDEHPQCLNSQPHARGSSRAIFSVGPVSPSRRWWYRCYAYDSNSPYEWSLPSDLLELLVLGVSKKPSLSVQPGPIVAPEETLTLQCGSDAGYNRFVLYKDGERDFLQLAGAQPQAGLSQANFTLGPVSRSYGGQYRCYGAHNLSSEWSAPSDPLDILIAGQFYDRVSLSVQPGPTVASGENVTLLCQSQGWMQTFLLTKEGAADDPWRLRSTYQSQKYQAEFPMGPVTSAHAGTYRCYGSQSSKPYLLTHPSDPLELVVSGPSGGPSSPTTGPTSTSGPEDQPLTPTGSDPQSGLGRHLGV
T8 sequence (Q8N423 22-460 limits assumed): as the sequence (Q8N423 22-460 limits assumed) above

- Kd [1]: 2.48 nM
- binding result [10]: no binding (tested: 2 µg/ml)
- binding result [11]: binds
B3: Antibody 13D12 (antibody, V domains shown)
VH: EIQLQQSGPELVKPGASVKVSCKASGYAFTSHNIYWVKQSHGKSLEWIGYIDPYNGGSTYNQKFKDKATLTVDKSSSTAYMHLKSLTSEDSAVYYCARGDYRDFWGQGTTLTVSS
VL: DIQMTQTTSSLSASLGDRVTIRCSASQAINNYLNWYQQKPDGTVKLLIYYTSSLHSGVPSRFSGSGSGADYSLTISNLEPEDIATYYCQQYSHLPWTFGGGTTLEIK
notes: Mouse hybridoma mAb purified from ascites

- Kd [12]: 0.242 nM
- IC50 [13]: 0.318 nM
B4: Antibody h#12a (antibody, V domains shown)
VH: EVQLVESGGGLVQPGGSLRLSCAASGFTFSNFGMHWVRQAPGKGLEWVAYISSGSGTIYYSDTVRGRFTISRDDSKNTLYLQMNSLRAEDTAVYYCARSDYDGDWFFDVWGQGTLVTVSS
VL: DIQMTQSPSSLSASVGDRVTITCKASQDVTTAVAWYQQKPGKAPKLLIYSASFRYTGVPSRFSGSGSGTDFTLTISSLQPEDFATYYCQQHFTTPLTFGQGTKVEIK
notes: Humanized variant of 9B6

Further lines, the binder ahead of its results:

B1: Antibody 9H6 (antibody, V domains shown)
VH: EVQLQQSGAELVRPGALVKLSCKASGFNVKDYYMHWVKQRPEQGLEWIGWIDPKNGNGIYDPKFQGKASITADTSSNTAYLQLSSLTSEDTSVYYCARGDYFGSSYLFAYWGQGTLVTVSA
VL: DIVMTQSHKFMSTSVGDRVSITCKASQDVSTAVAWYQQKPGQSPKLLIYSASYRYTGVPDRFTGSGSGTDFTFTISSVQAEDLAVYYCQQHYSTPWTFGGGAKLEIK
notes: as for B3
- Kd [1]: 1.04 nM
- OD490 [2]: 0.177 OD490
- OD490 [3]: 1.86 OD490
- OD490 [4]: 0.139 OD490
- binding result [5]: no binding (tested: 5 µg/ml)
- binding result [6]: no binding (tested: 5 µg/ml)
- IC50 (LILRB2-Fc fusion protein): 0.945 nM
- binding result (LILRB1-His): no binding
- binding result (LILRB3-His): no binding
- Kd [7]: 0.0257 nM
- koff [7]: 4.72e-06 s⁻¹
- kon [7]: 183000 M⁻¹ s⁻¹
- IC50 [8]: 3.12 nM
- IC50 [9]: 4.97 nM

B2: Antibody 9B6 (antibody, V domains shown)
VH: DVQLVESGGGLVQPGWSRILSCAASGFTFSNFGMHWVRQAPEKGLEWVAYISSGSGTIYYSDTVRGRFTISRDNPKNTLFLLMTSLRSEDTAMYYCTRSDYDGDWFFDVWGAGTTVTVSS
VL: DIVMTQSHRFLSTSVGDRVTITCKASQDVTTAVAWCQQKPGQSPKLLIYSASFRYTGVPDRFTGSGSGTDFTFTINNVQAEDLALYYCQQHFTTPLTFGAGTKLELK
notes: as for B3
- Kd [1]: 0.943 nM
- OD490 [2]: 0.121 OD490
- OD490 [3]: 1.43 OD490
- OD490 [4]: 0.126 OD490
- binding result [5]: no binding (tested: 5 µg/ml)
- binding result [6]: no binding (tested: 5 µg/ml)
- IC50 (LILRB2-Fc fusion protein): 1.01 nM
- binding result (LILRB1-His): no binding
- binding result (LILRB3-His): no binding
- Kd [7]: 1.07 nM
- koff [7]: 0.000864 s⁻¹
- kon [7]: 809000 M⁻¹ s⁻¹
- IC50 [8]: 0.618 nM
- IC50 [9]: 0.34 nM

B5: Antibody 2E1_FC11 (antibody, V domains shown)
VH: EVQLVESGGGLVQPGGSLRLSCAVSGYSITSGYYWNWIRQAPGKGLEWVAYISYDGNINYNPSLKNRFTISRDTSKNTFYLQMNSLRAEDTAVYYCAREESTMITTAWFAYWGQGTLVTVSS
VL: DIQMTQSPSSLSASVGDRVTITCRASENIYSNLAWYQQKPGKAPKLLIYGATNLASGVPSRFSGSGSGTDYTLTISSLQPEDFATYYCQHFWDYPYTFGQGTKVEIK
notes: also called A16
- Bmax [14]: 461000
- Bmax [15]: 1.37
- % no Ab [16]: 50.7%
- IC50 [13]: 0.442 nM
- Span [13]: 8620 RFU
- IC50 [17]: 0.36 nM
- Span [17]: 5700 RFU
- IC50 [18]: 0.472 nM
- IC50 [19]: 0.468 nM
